Source: US20210330762A1

What was measured:
Assay in all cases: cell-based or functional assay
[1] = target: wild-type microplasmin (WT µPlm), refolded from E. coli µPlg and activated with urokinase (human) (UniProt P00747)
[2] = target: µPlm mutant F587A (human) (UniProt P00747)
[3] = target: µPlm mutant F587D (human) (UniProt P00747)
[4] = target: µPlm mutant F587I (human) (UniProt P00747)
[5] = target: µPlm mutant F587M (human) (UniProt P00747)
[6] = target: µPlm mutant F587N (human) (UniProt P00747)
[7] = target: µPlm mutant F587Q (human) (UniProt P00747)
[8] = target: µPlm mutant F587R (human) (UniProt P00747)
[9] = target: µPlm mutant F587V (human) (UniProt P00747)

B1: α2-antiplasmin (α2-AP), purified from human serum (protein)
chain: NQEQVSPLTLLKLGNQEPGGQTALKSPPGVCSRDPTPEQTHRLARAMMAFTADLFSLVAQTSTCPNLILSPLSVALALSHLALGAQNHTLQRLQQVLHAGSGPCLPHLLSRLCQDLGPGAFRLAARMYLQKGFPIKEDFLEQSEQLFGAKPVSLTGKQEDDLANINQWVKEATEGKIQEFLSGLPEDTVLLLLNAIHFQGFWRNKFDPSLTQRDSFHLDEQFTVPVEMMQARTYPLRWFLLEQPEIQVAHFPFKNNMSFVVLVPTHFEWNVSQVLANLSWDTLHPPLVWERPTKVRLPKLYLKHQMDLVATLSQLGLQELFQAPDLRGISEQSLVVSGVQHQSTLELSEVGVEAAAATSIAMSRMSLSSFSVNRPFLFFIFEDTTGLPLFVGSVRNPNPSAPRELKEQQDSPGNKDFLQSLKGFPRGDKLFGPDLKLVPPMEEDYPQFGSPK
[1]
  IC50 (nM) of α2-AP inhibition of µPlm amidolytic activity (S-2403): 37.9 nM
  IC50 Fold Increase: 1 fold
[2]
  IC50 (nM) of α2-AP inhibition of µPlm amidolytic activity (S-2403): 150 nM
  IC50 Fold Increase: 4 fold
  activity remaining at 2 times concentration of α2-AP (% activity remaining): 50
[3]
  IC50 (nM) of α2-AP inhibition of µPlm amidolytic activity (S-2403): 106 nM
  IC50 Fold Increase: 2.8 fold
[4]
  IC50 (nM) of α2-AP inhibition of µPlm amidolytic activity (S-2403): 46.4 nM
  IC50 Fold Increase: 1.2 fold
[5]
  IC50 (nM) of α2-AP inhibition of µPlm amidolytic activity (S-2403): 77.6 nM
  IC50 Fold Increase: 2 fold
[6]
  IC50 (nM) of α2-AP inhibition of µPlm amidolytic activity (S-2403): 105 nM
  IC50 Fold Increase: 2.8 fold
[7]
  IC50 (nM) of α2-AP inhibition of µPlm amidolytic activity (S-2403): 63.2 nM
  IC50 Fold Increase: 1.7 fold
[8]
  IC50 (nM) of α2-AP inhibition of µPlm amidolytic activity (S-2403): 164 nM
  IC50 Fold Increase: 4.3 fold
[9]
  IC50 (nM) of α2-AP inhibition of µPlm amidolytic activity (S-2403): 65.2 nM
  IC50 Fold Increase: 1.7 fold
